Results reported in patent US20240270846A1 (published 2024).
Substitutions are numbered along the chain they refer to. Numbers in names are those of the source.

B1: CE115HA000 K64S one-arm antibody (antibody, human IgG1, kappa, L234A L235A, N297A, name in Kabat numbering)
heavy: QVQLVESGGGVVQPGRSLRLSCAASGFTFSNAWMHWVRQAPGKGLEWVAQIKAKSNNYATYYAESVSGRFTISRDDSKNSLYLQMNSLKTEDTAVYYCRYVHYGAYYGVDAWGQGTTVTVSSASTKGPSVFPLAPSSKSTSGGTAALGCLVKDYFPEPVTVSWNSGALTSGVHTFPAVLQSSGLYSLSSVVTVPSSSLGTQTYICNVNHKPSNTKVDKKVEPKSCDKTHTCPPCPAPEAAGGPSVFLFPPKPKDTLMISRTPEVTCVVVDVSHEDPEVKFNWYVDGVEVHNAKTKPREEQYASTYRVVSVLTVLHQDWLNGKEYKCKVSNKALPAPIEKTISKAKGQPREPQVYTLPPSRCELTKNQVSLSCAVKGFYPSDIAVEWESNGQPENNYKTTPPVLDSDGSFFLVSKLTVDKSRWQQGNVFSCSVMHEALHNHYTQKSLSLSPDYKDDDDK
chain: EPKSSDKTHTCPPCPAPELLGGPSVFLFPPKPKDTLMISRTPEVTCVVVDVSHEDPEVKFNWYVDGVEVHNAKTKPREEQYNSTYRVVSVLTVLHQDWLNGKEYKCKVSNKALPAPIEKTISKAKGQPREPQVCTLPPSRDELTKNQVSLWCLVKGFYPSDIAVEWESNGQPENNYKTTPPVLDSDGSFFLYSKLTVDKSRWQQGNVFSCSVMHEALHNRYTQKSLSLSP
light: DIVMTQSPLSLPVTPGEPASISCRSSQSLVHSNRNTYLHWYQQKPGQAPRLLIYKVSNRFSGVPDRFSGSGSGTDFTLKISRVEAEDVGVYYCGQGTQVPYTFGQGTKLEIKRTVAAPSVFIFPPSDEQLKSGTASVVCLLNNFYPREAKVQWKVDNALQSGNSQESVTEQDSKDSTYSLSSTLTLSKADYEKHKVYACEVTHQGLSSPVTKSFNRGEC
notes: one-arm antibody (one Fab)
B2: CE115HA000 V100cP one-arm antibody (antibody, human IgG1, kappa, L234A L235A, N297A, name in Kabat numbering)
heavy: B1 heavy with S67K, V109P
chain: B1 chain
light: B1 light
notes: one-arm antibody (one Fab)
B3: CE115HA000 Y58S one-arm antibody (antibody, human IgG1, kappa, L234A L235A, N297A, name in Kabat numbering)
heavy: B1 heavy with Y61S, S67K
chain: B1 chain
light: B1 light
notes: one-arm antibody (one Fab)
B4: CE115HA000 K75R one-arm antibody (antibody, human IgG1, kappa, L234A L235A, N297A, name in Kabat numbering)
heavy: B1 heavy with S67K, K78R
chain: B1 chain
light: B1 light
notes: one-arm antibody (one Fab)
B5: CE115HA000 L78I one-arm antibody (antibody, human IgG1, kappa, L234A L235A, N297A, name in Kabat numbering)
heavy: B1 heavy with S67K, L81I
chain: B1 chain
light: B1 light
notes: one-arm antibody (one Fab)
B6: CE115HA000 N53W one-arm antibody (antibody, human IgG1, kappa, L234A L235A, N297A, name in Kabat numbering)
heavy: B1 heavy with N56W, S67K
chain: B1 chain
light: B1 light
notes: one-arm antibody (one Fab)
B7: CE115HA000 N82aD one-arm antibody (antibody, human IgG1, kappa, L234A L235A, N297A, name in Kabat numbering)
heavy: B1 heavy with S67K, N86D
chain: B1 chain
light: B1 light
notes: one-arm antibody (one Fab)
B8: CE115HA000 V95A one-arm antibody (antibody, human IgG1, kappa, L234A L235A, N297A, name in Kabat numbering)
heavy: B1 heavy with S67K, V101A
chain: B1 chain
light: B1 light
notes: one-arm antibody (one Fab)
B9: CE115HA000 N54Q one-arm antibody (antibody, human IgG1, kappa, L234A L235A, N297A, name in Kabat numbering)
heavy: B1 heavy with N57Q, S67K
chain: B1 chain
light: B1 light
notes: one-arm antibody (one Fab)
B10: CE115HA000 N53Y one-arm antibody (antibody, human IgG1, kappa, L234A L235A, N297A, name in Kabat numbering)
heavy: B1 heavy with N56Y, S67K
chain: B1 chain
light: B1 light
notes: one-arm antibody (one Fab)
B11: CE115HA000 S62P one-arm antibody (antibody, human IgG1, kappa, L234A L235A, N297A, name in Kabat numbering)
heavy: B1 heavy with S65P, S67K
chain: B1 chain
light: B1 light
notes: one-arm antibody (one Fab)
B12: CE115HA000 S77T one-arm antibody (antibody, human IgG1, kappa, L234A L235A, N297A, name in Kabat numbering)
heavy: B1 heavy with S67K, S80T
chain: B1 chain
light: B1 light
notes: one-arm antibody (one Fab)
B13: CE115HA000 V95S one-arm antibody (antibody, human IgG1, kappa, L234A L235A, N297A, name in Kabat numbering)
heavy: B1 heavy with S67K, V101S
chain: B1 chain
light: B1 light
notes: one-arm antibody (one Fab)
B14: CE115HA000 V95K one-arm antibody (antibody, human IgG1, kappa, L234A L235A, N297A, name in Kabat numbering)
heavy: B1 heavy with S67K, V101K
chain: B1 chain
light: B1 light
notes: one-arm antibody (one Fab)
B15: CE115HA000 N54S one-arm antibody (antibody, human IgG1, kappa, L234A L235A, N297A, name in Kabat numbering)
heavy: B1 heavy with N57S, S67K
chain: B1 chain
light: B1 light
notes: one-arm antibody (one Fab)
B16: CE115HA000 K75T one-arm antibody (antibody, human IgG1, kappa, L234A L235A, N297A, name in Kabat numbering)
heavy: B1 heavy with S67K, K78T
chain: B1 chain
light: B1 light
notes: one-arm antibody (one Fab)
B17: CE115HA000 V95D one-arm antibody (antibody, human IgG1, kappa, L234A L235A, N297A, name in Kabat numbering)
heavy: B1 heavy with S67K, V101D
chain: B1 chain
light: B1 light
notes: one-arm antibody (one Fab)
B18: CE115HA000 N54L one-arm antibody (antibody, human IgG1, kappa, L234A L235A, N297A, name in Kabat numbering)
heavy: B1 heavy with N57L, S67K
chain: B1 chain
light: B1 light
notes: one-arm antibody (one Fab)
B19: CE115HA000 V95G one-arm antibody (antibody, human IgG1, kappa, L234A L235A, N297A, name in Kabat numbering)
heavy: B1 heavy with S67K, V101G
chain: B1 chain
light: B1 light
notes: one-arm antibody (one Fab)
B20: CE115HA000 N54Y one-arm antibody (antibody, human IgG1, kappa, L234A L235A, N297A, name in Kabat numbering)
heavy: B1 heavy with N57Y, S67K
chain: B1 chain
light: B1 light
notes: one-arm antibody (one Fab)
B21: CE115HA000 Q105E one-arm antibody (antibody, human IgG1, kappa, L234A L235A, N297A, name in Kabat numbering)
heavy: B1 heavy with S67K, Q114E
chain: B1 chain
light: B1 light
notes: one-arm antibody (one Fab)
B22: CE115HA000 V100cE one-arm antibody (antibody, human IgG1, kappa, L234A L235A, N297A, name in Kabat numbering)
heavy: B1 heavy with S67K, V109E
chain: B1 chain
light: B1 light
notes: one-arm antibody (one Fab)
B23: CE115HA000 N53S one-arm antibody (antibody, human IgG1, kappa, L234A L235A, N297A, name in Kabat numbering)
heavy: B1 heavy with N56S, S67K
chain: B1 chain
light: B1 light
notes: one-arm antibody (one Fab)
B24: CE115HA000 Y58L one-arm antibody (antibody, human IgG1, kappa, L234A L235A, N297A, name in Kabat numbering)
heavy: B1 heavy with Y61L, S67K
chain: B1 chain
light: B1 light
notes: one-arm antibody (one Fab)
B25: CE115HA000 T57N one-arm antibody (antibody, human IgG1, kappa, L234A L235A, N297A, name in Kabat numbering)
heavy: B1 heavy with T60N, S67K
chain: B1 chain
light: B1 light
notes: one-arm antibody (one Fab)
B26: CE115HA000 N53Q one-arm antibody (antibody, human IgG1, kappa, L234A L235A, N297A, name in Kabat numbering)
heavy: B1 heavy with N56Q, S67K
chain: B1 chain
light: B1 light
notes: one-arm antibody (one Fab)
B27: CE115HA000 Y55S one-arm antibody (antibody, human IgG1, kappa, L234A L235A, N297A, name in Kabat numbering)
heavy: B1 heavy with Y58S, S67K
chain: B1 chain
light: B1 light
notes: one-arm antibody (one Fab)
B28: CE115HA000 V95E one-arm antibody (antibody, human IgG1, kappa, L234A L235A, N297A, name in Kabat numbering)
heavy: B1 heavy with S67K, V101E
chain: B1 chain
light: B1 light
notes: one-arm antibody (one Fab)
B29: CE115HA000 Y58N one-arm antibody (antibody, human IgG1, kappa, L234A L235A, N297A, name in Kabat numbering)
heavy: B1 heavy with Y61N, S67K
chain: B1 chain
light: B1 light
notes: one-arm antibody (one Fab)
B30: CE115HA000 Y58Q one-arm antibody (antibody, human IgG1, kappa, L234A L235A, N297A, name in Kabat numbering)
heavy: B1 heavy with Y61Q, S67K
chain: B1 chain
light: B1 light
notes: one-arm antibody (one Fab)
B31: CE115HA000 V100cD one-arm antibody (antibody, human IgG1, kappa, L234A L235A, N297A, name in Kabat numbering)
heavy: B1 heavy with S67K, V109D
chain: B1 chain
light: B1 light
notes: one-arm antibody (one Fab)
B32: CE115HA000 S74P one-arm antibody (antibody, human IgG1, kappa, L234A L235A, N297A, name in Kabat numbering)
heavy: B1 heavy with S67K, S77P
chain: B1 chain
light: B1 light
notes: one-arm antibody (one Fab)
B33: CE115HA000 N76S one-arm antibody (antibody, human IgG1, kappa, L234A L235A, N297A, name in Kabat numbering)
heavy: B1 heavy with S67K, N79S
chain: B1 chain
light: B1 light
notes: one-arm antibody (one Fab)

Each binder was assayed against T1, CD3 epsilon homodimer protein (UniProt P07766 23-126) (assay: SPR Biacore T200, CD3 epsilon homodimer on CM4 chip, antibody as analyte;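 note: Amine-coupled CD3 epsilon homodimer, run at 25 °C in HBS-EP+ buffer, ratio is bound amount of each single-residue H chain variant over that of the parent antibody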).
T1 construct: Immobilized on Sensor chip CM4 by amine coupling; construct not described; also called CD3 (CD3 epsilon)
T1 sequence (P07766 23-126): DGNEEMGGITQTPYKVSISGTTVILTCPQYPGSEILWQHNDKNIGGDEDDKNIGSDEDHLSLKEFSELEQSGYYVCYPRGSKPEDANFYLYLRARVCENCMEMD

Row | ratio of amounts bound (Y/X vs CE115HA000) | Binder
1 | 0.84 | B1
2 | 0.2 | B2
3 | 0.18 | B3
4 | 1.01 | B4
5 | 1.34 | B5
6 | 0.88 | B6
7 | 0.73 | B7
8 | 0.11 | B8
9 | 0.84 | B9
10 | 0.63 | B10
11 | 1 | B11
12 | 0.9 | B12
13 | 0.22 | B13
14 | 0.64 | B14
15 | 0.84 | B15
16 | 0.84 | B16
17 | 0.24 | B17

Row | ratio of amounts bound (Y/X vs CE115HA000) | Binder
18 | 0.94 | B18
19 | 0.19 | B19
20 | 1.09 | B20
21 | 0.94 | B21
22 | 0.46 | B22
23 | 0.83 | B23
24 | 0.27 | B24
25 | 0.97 | B25
26 | 1.1 | B26
27 | 0.26 | B27
28 | 0.24 | B28
29 | 0.33 | B29
30 | 0.19 | B30
31 | 0.44 | B31
32 | 0.91 | B32
33 | 0.92 | B33
